Experimental findings from patent US20140113348A1 (CITY OF HOPE, published 2014) are described below.

Residue numbers refer to the chain shown, from its start. Bridges are numbered along the chain shown (N, C = ends). Where no end group is shown, it is not given here. [ ]: non-standard residue; d: D form. Dip = N[C@H](C(=O)O)C(c1ccccc1)c1ccccc1

Experiment [1] concerns the target T1, meditope-enabled trastuzumab.
T1 construct: Full IgG expressed in mammalian cells; also called TM; trastuzumab memAb
The experiment is described as follows: SPR; earlier SPR study of paragraph 680, approximate binding constant stated in text. For orientation: In SPR one partner is held on a chip, and binding of the other changes the refractive index at the surface.

Experiment [2] addresses T2, HER2 on SKBR3 cells (UniProt P04626 23-1255, limits assumed).
T2 construct: whole, on cells; also called HER2-expressing cells (SKBR3)
The experiment is described as follows: FACS, SKBR3 cells without antibody. (In flow cytometry, cells or beads pass a laser one at a time.)

Experiment [3] has as its target T3, meditope-enabled M5A (M5A 8M).
T3 construct: Eight point mutations in the light chain; wild-type heavy chain; expressed in NS0 cells; also called meditope-enabled anti-CEA antibody
Kind of experiment: FACS, LS174T cells with 500 nM AF488 M5A 8M and 9 µM AF647-MPL, 30 min [upper right histogram].
Procedure: (§1) Cells were washed twice with 0.1% BSA and FACS analysis was performed.

Experiment [4] concerns the target T4, wild-type M5A (anti-CEA antibody).
T4 construct: Humanized antibody with the same backbone as trastuzumab
The experiment is described as follows: FACS, LS174T cells with 500 nM AF488 wild-type M5A and 9 µM AF647-MPL, 30 min [upper right histogram].
Procedure: as §1

Experiment [5] deals with T5, wild-type trastuzumab.
T5 construct: also called WT T
Kind of experiment: FACS, SKBR3 cells pre-treated with AF488 wild-type trastuzumab, then 0.1 or 1 µM AF647-MPL (L3), washed extensively.

Experiment [6] concerns the target T5, wild-type trastuzumab. Kind of experiment: FACS, SKBR3 cells pre-bound with WT T, washed, then 0.1 or 1 µM Alexa 647-MPL-5K.
The target of experiment [7] is T3, meditope-enabled M5A (M5A 8M). Kind of experiment: SPR, kinetic fit, meditope at 10, 2, 0.4 and 0.08 uM over M5A 8M IgG immobilized at 5000 RU.
For experiment [8] the target is unchanged. Kind of experiment: SPR.

T3 sequence (light, as listed by the source, chain 1 of 2): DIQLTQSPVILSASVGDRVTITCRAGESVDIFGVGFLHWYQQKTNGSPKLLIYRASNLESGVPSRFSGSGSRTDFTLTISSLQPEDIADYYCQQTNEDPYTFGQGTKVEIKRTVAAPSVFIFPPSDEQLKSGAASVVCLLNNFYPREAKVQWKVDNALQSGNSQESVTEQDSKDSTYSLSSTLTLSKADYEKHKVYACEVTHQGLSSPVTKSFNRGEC
T3 sequence (heavy, as listed by the source, chain 2 of 2): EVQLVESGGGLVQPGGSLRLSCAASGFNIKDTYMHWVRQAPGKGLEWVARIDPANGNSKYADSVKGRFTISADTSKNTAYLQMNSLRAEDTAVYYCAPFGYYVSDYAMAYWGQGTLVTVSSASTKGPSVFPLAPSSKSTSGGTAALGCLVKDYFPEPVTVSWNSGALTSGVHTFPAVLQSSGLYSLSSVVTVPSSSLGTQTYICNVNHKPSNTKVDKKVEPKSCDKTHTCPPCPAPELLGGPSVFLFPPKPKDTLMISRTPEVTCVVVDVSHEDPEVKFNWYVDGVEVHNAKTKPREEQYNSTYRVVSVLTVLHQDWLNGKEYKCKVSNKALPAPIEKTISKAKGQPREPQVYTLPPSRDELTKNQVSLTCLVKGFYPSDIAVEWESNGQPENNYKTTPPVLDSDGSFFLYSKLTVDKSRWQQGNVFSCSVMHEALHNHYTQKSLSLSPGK
T5 sequence (heavy, as listed by the source limits assumed, chain 1 of 2, other chains not shown): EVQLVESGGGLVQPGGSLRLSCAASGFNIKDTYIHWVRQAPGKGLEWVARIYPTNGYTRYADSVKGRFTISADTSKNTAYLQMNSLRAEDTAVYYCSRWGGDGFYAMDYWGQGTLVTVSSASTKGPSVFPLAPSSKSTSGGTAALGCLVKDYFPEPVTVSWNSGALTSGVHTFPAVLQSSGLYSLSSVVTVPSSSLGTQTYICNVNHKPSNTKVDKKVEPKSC
T1 sequence (heavy, as listed by the source limits assumed, chain 1 of 2): as the sequence (heavy, as listed by the source limits assumed, chain 1 of 2, other chains not shown) above, with A40S, V93I counted along it
T1 sequence (light, as listed by the source limits assumed, chain 2 of 2): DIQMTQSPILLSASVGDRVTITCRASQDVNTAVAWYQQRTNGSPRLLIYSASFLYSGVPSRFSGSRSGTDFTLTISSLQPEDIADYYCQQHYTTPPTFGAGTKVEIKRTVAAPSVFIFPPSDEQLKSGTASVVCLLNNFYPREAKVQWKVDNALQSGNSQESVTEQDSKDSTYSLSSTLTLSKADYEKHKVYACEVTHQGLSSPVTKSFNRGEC
T4 sequence (light, as listed by the source, chain 1 of 2): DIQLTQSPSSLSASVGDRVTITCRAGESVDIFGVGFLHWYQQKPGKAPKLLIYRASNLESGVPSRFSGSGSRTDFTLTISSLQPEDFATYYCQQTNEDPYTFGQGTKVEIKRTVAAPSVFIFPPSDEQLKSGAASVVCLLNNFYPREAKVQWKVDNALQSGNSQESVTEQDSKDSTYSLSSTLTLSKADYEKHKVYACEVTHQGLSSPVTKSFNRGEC
T4 sequence (heavy, as listed by the source, chain 2 of 2): as the sequence (heavy, as listed by the source, chain 2 of 2) above

B1: Protein L (single Fab binding domain) (other)
chain: EVTIKVNLIFADGKIQTAEFKGTFEEATAEAYRYAALLAKVNGEYTADLEDGGNHMNIKFAG
notes: also called Protein L (only); protein L alone
Consider B1, for which the Kd in experiment [1] is around 500 nM.

B2: meditope-Protein L fusion protein (MPL), linker GGGGS (designed binder)
chain: SCQFDLSTRRLKCGGGGSEVTIKVNLIFADGKIQTAEFKGTFEEATAEAYRYAALLAKVNGEYTADLEDGGNHMNIKFAG
modifications: the two cysteines cyclized (disulfide)
notes: Labeled with AF647 in cell assays; also called MPL (L3); MPL (WT)
For B2, the binding result in experiment [2] is given as “no binding (tested: 0.1 µM or 1 µM MPL)”; in experiment [3] it was “binds”; in experiment [4] it was “binds”; in experiment [5] it was “no binding (tested: 1 µM)”.

B3: meditope-Protein L fusion in which all but one lysine were mutated to arginine or asparagine (MPL-5K) (designed binder)
chain: B2 chain with K12R, K23R, K32N, K39R, K58R
Regarding B3, the binding result was “no binding (tested: 1 µM)” in experiment [6] and “no binding” in experiment [2].

B4: meditope 18 (C-QFDXSTRRLK-C) (peptide)
peptide: CQFD[Dip]STRRLKC
modifications: disulfide 1-12
notes: also called CQFDA(diphenyl)STRRLKC; 5-diphenyl meditope
With B4, in experiment [7], binding was characterised by a dissociation constant (Kd) of 438 nM, the koff was determined as 0.015 s⁻¹ and the kon turned out to be 34300 M⁻¹ s⁻¹.

Consider CQYNLSSRALKC (disulfide 1-12, also called meditope 2) [cQYN meditope (cyclic CQYNLSSRALKC)], for which the binding result in experiment [8] was “binds”.

B5: meditope 31 (AcC-QFDLSTRRLR-CGGGSK) (peptide)
peptide: Ac-CQFDLSTRRLRCGGGSK
modifications: disulfide 1-12; also: fluorescein attached in labeled form for polarization assay
Turning to B5, in experiment [8], the binding result is on record as “binds”.

By Kd is commonly meant the free concentration of one partner at which half of the binding sites on the other are occupied at equilibrium, for simple one-to-one binding. As usually defined, the koff is the rate constant with which the complex falls apart. The low end stands for a long-lived complex, the high end for a short-lived complex. As usually defined, the kon is the second-order rate constant of association. A high value points to faster complex formation.
